± gives the uncertainty stated by the source.
B1: Pituitary-specific positive transcription factor 1, residues 130 to 198; numbered along this chain, P28069 (parent)
chain: RELEKFANEFKVRRIKLGYTQTNVGEALAAVHGSEFSQTTICRFENLQLSFKNACKLKAILSKWLEEAE

Variants of: B1
Assay: abundance fitness (aPCA) (normalised: wild type 0, dead -1); higher = more abundant; growth selection in yeast, the domain comes from the species named
Settings: Homo sapiens

Variant	abundance fitness
K16R	-0.027 ± 0.044
K16M	-0.365 ± 0.13
K16A	-0.08 ± 0.092
R14S	-0.995 ± 0.2
R14G	-0.8 ± 0.17
T20G	-0.662 ± 0.12
T20L	-0.683 ± 0.08
T40G	-0.528 ± 0.1
T40D	0.308 ± 0.2
R13G	-0.69 ± 0.12
G33F	-0.934 ± 0.47
G33Y	-0.96 ± 0.21
G33Q	-0.212 ± 0.1
S37L	-0.682 ± 0.076
N23V	-0.27 ± 0.08
N23C	-0.184 ± 0.16
L49F	-0.149 ± 0.1
L49N	-0.818 ± 0.21
A30R	0.042 ± 0.049
A30V	-0.444 ± 0.087
A30M	-0.261 ± 0.075
A30N	-0.219 ± 0.071
A30H	-0.357 ± 0.08
E66I	-0.281 ± 0.079

Variant	abundance fitness
E66H	-0.334 ± 0.29
E66T	-0.115 ± 0.093
E66W	-0.562 ± 0.17
L28N	-0.863 ± 0.26
L28G	-0.715 ± 0.14
L28C	-0.889 ± 0.23
K11V	-0.694 ± 0.15
K11R	-0.021 ± 0.051
Y19F	-0.501 ± 0.4
Y19W	-0.283 ± 0.16
N53Q	0 ± 0.084
N53T	0.131 ± 0.037
R1M	-0.712 ± 0.26
Q48P	-0.506 ± 0.21
Q48C	-0.586 ± 0.12
Q48S	-0.389 ± 0.094
Q48T	-0.177 ± 0.11
Q48A	-0.629 ± 0.16
A68H	-0.271 ± 0.1
A68I	0.128 ± 0.45
A68D	-0.78 ± 0.34
A68K	0.047 ± 0.15
K63M	-0.155 ± 0.13
K63I	-0.326 ± 0.094

Variant	abundance fitness
E2Q	-0.523 ± 0.16
E2K	-0.471 ± 0.24
V31Y	-0.339 ± 0.16
V31N	-0.389 ± 0.078
V31K	0.131 ± 0.088
L47N	0.187 ± 0.065
L47C	0.155 ± 0.15
L47F	-0.562 ± 0.12
L57Y	-0.156 ± 0.12
S34I	-0.171 ± 0.1
S34P	0.133 ± 0.07
S50C	-0.459 ± 0.12
S50V	-0.877 ± 0.15
S50I	-0.378 ± 0.36
S50Q	-0.533 ± 0.3
K52N	-0.024 ± 0.058
K52P	-0.077 ± 0.093
K52A	0.002 ± 0.046
K52T	0.036 ± 0.11
K52H	0.018 ± 0.21
V12P	-0.772 ± 0.48
V12L	-0.16 ± 0.059
A7C	-0.21 ± 0.061
L65R	-0.748 ± 0.11

Variant	abundance fitness
L65D	-0.85 ± 0.19
L65M	-0.374 ± 0.075
A54R	-0.974 ± 0.37
A54F	-0.131 ± 0.19
E35P	-0.381 ± 0.17
E35W	-0.265 ± 0.1
L17F	-0.588 ± 0.094
L17C	-0.613 ± 0.11
L17H	-0.497 ± 0.29
S62V	-0.167 ± 0.064
S62E	0.016 ± 0.087
S62P	-0.909 ± 0.27
S62K	-0.3 ± 0.12
S62L	-0.144 ± 0.055
H32Y	0.276 ± 0.14
L61Y	-0.759 ± 0.13
R43M	0.234 ± 0.17
R43P	-0.855 ± 0.11
E26V	-0.461 ± 0.11
E26W	-0.493 ± 0.12
A59E	0.214 ± 0.063
A59T	0.042 ± 0.069
K5G	-0.478 ± 0.071
K5D	0.048 ± 0.074

Variant	abundance fitness
K5I	-0.079 ± 0.054
K5A	-0.015 ± 0.045
K5P	-1.07 ± 0.16
K5C	-0.647 ± 0.089
E69P	-0.433 ± 0.23
E69L	-0.719 ± 0.28
E69Q	-0.635 ± 0.22
E69R	-0.706 ± 0.13
A27T	-0.18 ± 0.089
A27L	-0.315 ± 0.077
A27N	-0.74 ± 0.41
F36I	0.128 ± 0.14
F36A	-0.496 ± 0.093
F36T	-0.512 ± 0.13
E4V	-0.072 ± 0.07
E4M	-0.451 ± 0.21
E4P	-0.898 ± 0.15
Q21W	-0.592 ± 0.13
Q21R	-0.288 ± 0.063
Q21M	-0.394 ± 0.099
T39M	-0.147 ± 0.085
T39P	-0.387 ± 0.14
T39Y	-0.447 ± 0.33
T39C	-1.07 ± 0.43

Variant	abundance fitness
T39Q	0.13 ± 0.11
C42R	0.142 ± 0.069
C42T	-0.02 ± 0.068
C42G	-0.029 ± 0.064
I15H	-0.393 ± 0.093
I15A	-0.173 ± 0.085
G25W	-0.001 ± 0.066
G25Y	0.101 ± 0.12
G25P	-0.776 ± 0.15
F6T	-0.992 ± 0.17
F6W	-0.333 ± 0.052
F6D	-1.06 ± 0.22
I60S	-0.568 ± 0.099
I60G	-0.495 ± 0.091
I60R	-0.346 ± 0.066
L3V	-0.468 ± 0.082
K58I	-0.984 ± 0.24
K58F	-0.933 ± 0.26
F44E	-0.72 ± 0.18
F44Q	-0.885 ± 0.28
K56Q	-0.074 ± 0.067
N46C	-0.787 ± 0.42
W64R	-0.79 ± 0.14
W64C	-0.164 ± 0.15

Variant	abundance fitness
W64N	-0.475 ± 0.28
W64K	-0.461 ± 0.16
E67D	0.002 ± 0.069
E67N	-0.134 ± 0.099
E67K	-0.18 ± 0.11
F10G	-1.05 ± 0.17
F10R	-0.738 ± 0.12
F10S	-0.544 ± 0.086
F10I	-0.963 ± 0.39
F10P	-0.931 ± 0.39
A29V	-0.87 ± 0.31
A29Q	-0.112 ± 0.075
A29P	-0.89 ± 0.24
A29M	-0.402 ± 0.11
G18S	-0.838 ± 0.16
G18I	-0.665 ± 0.27
C55S	0.024 ± 0.062
C55A	-0.207 ± 0.1
C55R	-0.294 ± 0.094
C55H	-0.099 ± 0.18
E9W	-0.057 ± 0.085
E45L	-0.883 ± 0.14
E45Y	-0.993 ± 0.31
